From US20110165161A1, “ANTI-EPCAM ANTIBODIES THAT INDUCE APOPTOSIS OF CANCER CELLS AND METHODS USING SAME” (priority 2009, published 2011)

Columns and labels:
CHO parental cells = experiment: FACS binding of anti-EpCAM antibodies to CHO parental cells; set-up: species or system Chinese hamster; settings: antibody 0.1 μg/ml; HPS at 300x dilution
Method: (§1) 1×10^5 CHO/EpCAM or CHO parental cells were seeded in each well of a v-bottomed 96-well plate and incubated with purified anti-EpCAM antibodies or mouse IgG control antibody 9E10 at concentration of 0.1 μg/ml. A 300× dilution of human cell hyper-immune serum (HPS 300×) was used as binding positive control for both cell lines here. After 1 hr incubation at 4° C., cells were washed twice with 200 μl FACS buffer (1×PBS containing 1% FBS), stained with 100 μl of 1 μg/ml goat-anti-mouse IgG-PE (Southern Biotech, Cat. No. 1032-09) in FACS buffer and then incubated at 4° C. for 30 min. Cells were washed thrice with FACS buffer and analyzed by flow cytometry (BD LSR, BD Life Sciences).

[1] = tested on: NCI-H358 lung cancer cells; experiment: Cell death in NCI-H358 lung cancer cells (Annexin V + PI); format: cell-based, human; settings: mAb 10 μg/ml, 17 hr; for % of Annexin V + PI staining (untreated background subtracted), Mean ± SEM: mean of 5 experiments
Method: (§2) 5×10^4 NCI-H358 cells were seeded to each well of a 96-well plate, and then 10 μg/ml of anti-EpCAM or control (9E10) mAbs diluted in the medium was added into the cells. After a 17-hr incubation at 37° C., the cells were stained with 0.3 μl of FITC-conjugated Annexin V (Strong Biotech Corp. Cat. No. AVK250) in 50 μl Annexin V binding buffer (Strong Biotech Corp. Cat. No. AVK250) at RT for 20 min. After wash, the cells were then stained with 0.3 μl of propidium iodide in 200 μl Annexin V binding buffer. Annexin V and Propidium Iodide were used as a joint indicator for measuring cell death. The data were acquired with BD FACSCalibur based on an acquisition of 3,000-5,000 cells and analyzed with the Cell Quest software. The combined percentages of the Annexin V+/PI+, Annexin V+/PI− and Annexin V−/PI+populations were considered as dead cells.

[2] = tested on: Gastric cancer NCI-N87 cells; experiment: Antibody cytotoxicity assay (Annexin V + PI), NCI-N87; format: cell-based; settings: for Induction of cell death (in words): 1, 3 and 10 μg/ml, overnight; for Cytotoxic effect (Annexin V + PI staining, dead cells): 17-20 hr
Method: as §2, with “After” for “5×10^4 NCI-H358 cells were seeded to each well of a 96-well plate, and then 10 μg/ml of anti-EpCAM or control (9E10) mAbs diluted in the medium was added into the cells. After”, “17-20 hr” for “17-hr”, “C.,” for “C., the”, “for” for “for measuring”

[3] = tested on: COLO 205 colon cancer cells; experiment: Cytotoxicity of anti-EpCAM antibodies in combination with oxaliplatin in COLO 205; format: cell-based, human; settings: 24 hr
Method: as §2, with “Oxaliplatin, combined with infusional administration of 2 other chemotherapy drugs, 5-fluorouracil/leucovorin (5-FU/LV), is now considered as one of the as first-line treatments for people with advanced carcinoma of the colon or rectum (André et al. (2004) N Engl J Med 350(23):2343-2351). To test the cytotoxicity of anti-EpCAM antibodies in the presence of oxaliplatin, 1×10^5 COLO 205 cells” for “5×10^4 NCI-H358 cells”, “then 0.03, 0.3 and 3” for “then 10”, “mAbs in combination with oxaliplatin at concentration of 0, 0.01, 0.1, and 1 μg/ml” for “mAbs”, “medium were” for “medium was”, “a 24-hr” for “a 17-hr”

[4] = tested on: Lung cancer NCI-H520 cells; experiment: Antibody cytotoxicity assay (Annexin V + PI), NCI-H520; format: cell-based; settings: for Induction of cell death (in words): 1, 3 and 10 μg/ml, overnight; for Cytotoxic effect (Annexin V + PI staining, dead cells): 17-20 hr
Method: as §2, with “After” for “5×10^4 NCI-H358 cells were seeded to each well of a 96-well plate, and then 10 μg/ml of anti-EpCAM or control (9E10) mAbs diluted in the medium was added into the cells. After”, “17-20 hr” for “17-hr”, “C.,” for “C., the”, “for” for “for measuring”

[5] = biological target: T1, human EpCAM (CHO/EpCAM cells) (Homo sapiens, UniProt P16422); experiment: FACS binding of anti-EpCAM antibodies to CHO/EpCAM cells; settings: antibody 0.1 μg/ml; HPS at 300x dilution
T1 construct: full-length of human EpCAM (aa 1-314); expressed in transfected cells; host or cells: CHO (Chinese hamster ovary) cells
T1 sequence (P16422 24-314): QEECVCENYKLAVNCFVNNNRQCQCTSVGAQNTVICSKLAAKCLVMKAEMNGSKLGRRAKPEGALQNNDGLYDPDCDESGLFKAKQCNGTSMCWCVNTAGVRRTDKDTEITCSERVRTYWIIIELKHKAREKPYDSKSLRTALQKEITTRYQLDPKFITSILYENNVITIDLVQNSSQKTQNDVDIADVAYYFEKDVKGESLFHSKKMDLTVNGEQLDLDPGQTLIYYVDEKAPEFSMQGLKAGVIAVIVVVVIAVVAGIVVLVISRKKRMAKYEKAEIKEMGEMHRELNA
Method: The cDNAs encoding full-length of human EpCAM (aa 1-314) were amplified by PCR from the cDNA pool generated from T-47D cells and cloned into the modified pcDNA 3.1/Myc-His(+) A vector (Invitrogen), followed by transfecting into Chinese hamster ovary (CHO) cells at 80-90% confluence in 6-well culture dishes, using Lipofectamine 2000 (Invitrogen, Cat. No. 11668-500). Transfectants were selected in F12/10% FBS medium containing 600 ug/ml Hygromycin B (C.A. IN-10687-010). Transfected cells expressing hEpCAM were identified by flow cytometry with anti-EpCAM antibodies.
as §1

[6] = mAb 0.03 μg/ml, oxaliplatin 0 μg/ml
[7] = mAb 0.3 μg/ml + oxaliplatin 1 μg/ml
[8] = mAb 0.3 μg/ml, oxaliplatin 0 μg/ml
[9] = mAb 3 μg/ml + oxaliplatin 0.01 μg/ml
[10] = mAb 3 μg/ml + oxaliplatin 1 μg/ml
[11] = mAb 3 μg/ml, oxaliplatin 0 μg/ml

B1: 1G10: murine anti-human EpCAM monoclonal antibody (IgG1, K), hybridoma m290-1G10; VH SEQ ID NO:7, VL SEQ ID NO:9 (antibody, listed as Mus musculus, V domains shown)
VH: QIQLVQSGPELKKPGETVKISCKASGYTFTNYGMNWVKQAPGKGFKWMGWINTYTGEPTYADDFKGRFAFSLETSASTAYLQINNLQNEDMATYFCARWGYDFDYWGQGTTLTVSS
VL: QIVLTQSPAIMSSSPGEKVTMTCSASSSISYMNWYQQKPGTSPKRWIYDTSKLASGVPARFSGSGSGTSYSLTISSMEAEDAATYYCHQRSSYPYTFGGGTKLEIKR
Binding (FACS, Mean fluorescence intensity (MFI)) CHO (CHO parental cells): 5
% of Annexin V + PI staining (untreated background subtracted) ([1]; Exp1): 46%
% of Annexin V + PI staining (untreated background subtracted) ([1]; Exp2): 42%
% of Annexin V + PI staining (untreated background subtracted) ([1]; Exp3): 48%
% of Annexin V + PI staining (untreated background subtracted) ([1]; Exp4): 47%
% of Annexin V + PI staining (untreated background subtracted) ([1]; Exp5): 42%
% of Annexin V + PI staining (untreated background subtracted), Mean ± SEM [1]: 45.0 ± 1.3%
Induction of cell death (in words) [2]: substantial cell death
Cytotoxic effect (Annexin V + PI staining, dead cells) ([2]; mAb 1.0 μg/ml): 50%
Cytotoxic effect (Annexin V + PI staining, dead cells) ([2]; mAb 3.0 μg/ml): 60%
Cytotoxic effect (Annexin V + PI staining, dead cells) ([2]; mAb 10 μg/ml): 60%
% of Annexin V + PI staining (untreated background subtracted) ([3]; mAb 0.03 μg/ml + oxaliplatin 0.1 μg/ml): 2%
% of Annexin V + PI staining (untreated background subtracted) [3, 6]: 2%
% of Annexin V + PI staining (untreated background subtracted) ([3]; mAb 0.3 μg/ml + oxaliplatin 0.01 μg/ml): 4%
% of Annexin V + PI staining (untreated background subtracted) ([3]; mAb 0.3 μg/ml + oxaliplatin 0.1 μg/ml): 5%
% of Annexin V + PI staining (untreated background subtracted) [3, 7]: 10%
% of Annexin V + PI staining (untreated background subtracted) [3, 8]: 5%
% of Annexin V + PI staining (untreated background subtracted) [3, 9]: 38%
% of Annexin V + PI staining (untreated background subtracted) [3, 10]: 54%
% of Annexin V + PI staining (untreated background subtracted) [3, 11]: 46%
Induction of cell death (in words) [4]: substantial cell death
Cytotoxic effect (Annexin V + PI staining, dead cells) ([4]; mAb 1.0 μg/ml): 32%
Cytotoxic effect (Annexin V + PI staining, dead cells) ([4]; mAb 3.0 μg/ml): 41%
Cytotoxic effect (Annexin V + PI staining, dead cells) ([4]; mAb 10 μg/ml): 55%
Binding (FACS, Mean fluorescence intensity (MFI)) CHO/EpCAM [5]: 6178

B2: 1F10: murine anti-human EpCAM monoclonal antibody (IgG1, λ1), hybridoma m338-1F10.3; VH SEQ ID NO:11, VL SEQ ID NO:13 (antibody, listed as Mus musculus, V domains shown)
VH: EVKLLESGGGLVQPGGSLKLSCAASGFDFSRYWMSWVRQAPGKGLEWIGEINPDSSTMNYTPSLKDKFIISRDNAKNTLYLQMSKVRSEDTALYYCARGAYAMDYWGQGTSVTVSS
VL: QAVVTQESALTTSPGETVTLTCRSSTGAVTTSNNANWVQEKPDHLFTGLIGATNNRAPGVPARFSGSLIGDKAALTITGAQTEDEAIYFCALWYINHWVFGGGTKLTVLG
Binding (FACS, Mean fluorescence intensity (MFI)) CHO (CHO parental cells): 6
% of Annexin V + PI staining (untreated background subtracted) ([1]; Exp1): 32%
% of Annexin V + PI staining (untreated background subtracted) ([1]; Exp2): 30%
% of Annexin V + PI staining (untreated background subtracted) ([1]; Exp3): 40%
% of Annexin V + PI staining (untreated background subtracted) ([1]; Exp4): 39%
% of Annexin V + PI staining (untreated background subtracted) ([1]; Exp5): 37%
% of Annexin V + PI staining (untreated background subtracted), Mean ± SEM [1]: 35.6 ± 2.0%
Induction of cell death (in words) [2]: substantial cell death
Cytotoxic effect (Annexin V + PI staining, dead cells) ([2]; mAb 1.0 μg/ml): 57%
Cytotoxic effect (Annexin V + PI staining, dead cells) ([2]; mAb 3.0 μg/ml): 57%
Cytotoxic effect (Annexin V + PI staining, dead cells) ([2]; mAb 10 μg/ml): 57%
% of Annexin V + PI staining (untreated background subtracted) ([3]; mAb 0.03 μg/ml + oxaliplatin 0.01 μg/ml): −1%
% of Annexin V + PI staining (untreated background subtracted) ([3]; mAb 0.03 μg/ml + oxaliplatin 1 μg/ml): 5%
% of Annexin V + PI staining (untreated background subtracted) [3, 6]: −1%
% of Annexin V + PI staining (untreated background subtracted) [3, 7]: 22%
% of Annexin V + PI staining (untreated background subtracted) [3, 8]: 6%
% of Annexin V + PI staining (untreated background subtracted) [3, 9]: 52%
% of Annexin V + PI staining (untreated background subtracted) ([3]; mAb 3 μg/ml + oxaliplatin 0.1 μg/ml): 57%
% of Annexin V + PI staining (untreated background subtracted) [3, 10]: 61%
% of Annexin V + PI staining (untreated background subtracted) [3, 11]: 54%
Induction of cell death (in words) [4]: substantial cell death
Cytotoxic effect (Annexin V + PI staining, dead cells) ([4]; mAb 1.0 μg/ml): 40%
Cytotoxic effect (Annexin V + PI staining, dead cells) ([4]; mAb 3.0 μg/ml): 46%
Cytotoxic effect (Annexin V + PI staining, dead cells) ([4]; mAb 10 μg/ml): 57%
Binding (FACS, Mean fluorescence intensity (MFI)) CHO/EpCAM [5]: 5634
